US20230272073A1 (AVA LIFESCIENCE, published 2023)

Target: T1, soluble recombinant version of the IGLV3-21^R110-harboring B-cell receptor, produced as monomeric human IgM (human)
T1 construct: 170.5 kDa, made by transient expression in 293-HEK cells; It was the analyte in solution in BLI; also called soluble IGLV3-21^R110 B-cell receptor; soluble BCR-fragment
Assay: BLI (Octet)
Experimental: Kinetic assays were performed by first immobilizing the anti IGLV3-21^R110 antibodies onto biosensors through an indirect capturing reagent, anti-human IgG Fc antibody. Anti IGLV3-21^R110 antibodies were loaded at a concentration of 0.01875 μg/ml to generate an anti IGLV3-21^R110 antibody capture level of between 0.30 and 0.34 nm. […] The anti IGLV3-21^R110 antibody capture biosensors were then submerged in wells containing the different concentrations of the soluble BCR-fragment for 900 seconds (association stage) followed by a dissociation step of 1200 seconds in running buffer. Steps were performed at a constant shake speed of 1000 rpm. All reagents were used as described by the manufacturer. Sensorgrams were generated after double reference correction (buffer and blank sensors) to compensate for both the natural dissociation of the capture anti IGLV3-21^R110 antibody and also non-specific binding of the soluble BCR-fragment to the sensor surface. […] (KD) were calculated based on the ratio of association (kₐ) and dissociation rate (kd) constants, obtained by fitting sensorgrams with a first order 1:1 binding model using the Fortebio Data Analysis software (Satorius).
For the KD values of all humanized antibodies, see Table 3.

T1 sequence (heavy, as listed by the source limits assumed, chain 1 of 2): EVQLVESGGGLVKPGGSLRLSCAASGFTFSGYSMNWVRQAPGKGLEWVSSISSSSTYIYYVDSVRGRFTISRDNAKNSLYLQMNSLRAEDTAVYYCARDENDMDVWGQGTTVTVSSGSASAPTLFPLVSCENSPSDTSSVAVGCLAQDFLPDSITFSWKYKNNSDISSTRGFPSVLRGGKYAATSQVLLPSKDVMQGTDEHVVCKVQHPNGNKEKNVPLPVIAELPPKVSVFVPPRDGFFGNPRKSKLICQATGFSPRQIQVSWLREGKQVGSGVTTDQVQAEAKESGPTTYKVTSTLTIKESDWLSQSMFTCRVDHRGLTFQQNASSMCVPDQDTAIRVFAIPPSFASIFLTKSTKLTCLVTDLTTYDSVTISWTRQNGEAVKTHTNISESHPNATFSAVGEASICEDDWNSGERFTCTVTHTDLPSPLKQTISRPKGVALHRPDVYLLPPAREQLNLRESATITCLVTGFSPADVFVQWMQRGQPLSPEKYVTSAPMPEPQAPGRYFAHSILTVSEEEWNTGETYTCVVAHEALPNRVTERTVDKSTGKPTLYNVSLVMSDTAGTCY
T1 sequence (light, as listed by the source limits assumed, chain 2 of 2): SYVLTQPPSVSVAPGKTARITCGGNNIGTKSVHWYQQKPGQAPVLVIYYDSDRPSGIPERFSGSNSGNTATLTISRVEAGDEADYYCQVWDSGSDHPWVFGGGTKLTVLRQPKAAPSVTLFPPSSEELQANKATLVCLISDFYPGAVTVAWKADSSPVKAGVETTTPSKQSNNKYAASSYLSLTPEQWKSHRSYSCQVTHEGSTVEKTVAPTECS

B1: HC7-LC6 (antibody, human IgG1, kappa, V domains shown)
VH: QVQLQESGPGLVKPSETLSLTCTVSGFSLTSYGIHWIRQSPGRGLEWIGVIWRGGGTDSNAAFMSRITISRDTSKTQVSLKLGSVTAADTAIYYCARSRYDEEESMNYWGQGTSVTVSS
VL: EIVLTQSPSSLSASVGDSVTITCRASGNIHSYLAWYQQKPGKAPKLLIYNAKTLADGVPSRFSGSGSGTQYTLTISSLQPEDFATYYCQHFWNTPPTFGAGTKLELKR
notes: Humanized antibody, human IgG1 / kappa
With B1 the “fold of dissociation constant relative to chimeric antibody HC0-LC0” value was at most 2 fold.
